Test results reported in patent publication US6828304B1, “Peptides for treatment of cancer” (Dabur Research Foundation, priority 2000, dated 2004).
Peptide text beside a SMILES is read from it. * marks the point of attachment. Palmitoyl = CCCCCCCCCCCCCCCC(=O)*; Myristoyl = CCCCCCCCCCCCCC(=O)*; Octanoyl = CCCCCCCC(=O)*

Columns and labels:
Conditions in all cases: 48 hours
[1] = tested on: L132 (Lung) tumor cells; experiment: MTT cytotoxicity assay, L132 cells; assay type: cell-based
Text: (§1) The cytotoxic effect of Lipo peptide analogs, DT-A1 (SEQ ID NO: 2), DT-B1 (SEQ ID NO: 3), DT-01 (SEQ ID NO: 4), DT-M1 (SEQ ID NO: 5) and DT-P1 (SEQ ID NO: 6) was studied by MTT assay which is based on the principle of uptake of MTT [3-[4,5-dimethylthiazol-2-yl]-2,5-diphenyl tetrazolium bromide], a tetrazolium salt by the metabolically active cells where it is metabolized by active mitochondria into a blue colored formazan product which can be read spectrophotometrically. Briefly, tumor cells PTC (primary colon) KB (Oral squamous), U87MG (Glioblastoma), HBL100 (Breast), HeP2 (Laryngeal), ECV304 (Endothelial), PA-1 (Ovary) and L132 (Lung) were incubated with the peptide analogs for 48 hours at 37° C. in a 96-well culture plate, followed by the addition of 100 μg MTT and _further incubation of 1 hour. The formazan crystals formed inside the cells were dissolved with a detergent comprising 10% Sodium dodecyl sulfate and 0.01 N HCl and optical density read on a multiscan ELISA reader. The optical density was directly proportional to the number of proliferating and metabolically active cells.

[2] = tested on: HeP2 (Laryngeal) tumor cells; experiment: MTT cytotoxicity assay, HeP2 cells; assay type: cell-based
Text: as §1

[3] = tested on: KB (Oral squamous) tumor cells; experiment: MTT cytotoxicity assay, KB cells; assay type: cell-based
Text: as §1

[4] = tested on: PTC (primary colon) tumor cells; experiment: MTT cytotoxicity assay, PTC cells; assay type: cell-based, human
Text: as §1

[5] = tested on: U87MG (Glioblastoma) tumor cells; experiment: MTT cytotoxicity assay, U87MG cells; assay type: cell-based
Text: as §1

[6] = tested on: PA-1 (Ovary) tumor cells; experiment: MTT cytotoxicity assay, PA-1 cells; assay type: cell-based
Text: as §1

[7] = tested on: HBL100 (Breast) tumor cells; experiment: MTT cytotoxicity assay, HBL100 cells; assay type: cell-based
Text: as §1

[8] = tested on: ECV304 (Endothelial) cells; experiment: MTT cytotoxicity assay, ECV304 cells; assay type: cell-based
Text: as §1

Row | Compound | Percentage cytotoxicity ([1]; 1 nM) | Percentage cytotoxicity ([1]; 10 nM) | Percentage cytotoxicity ([1]; 100 nM) | Percentage cytotoxicity ([1]; 1 μM) | Percentage cytotoxicity ([2]; 1 nM) | Percentage cytotoxicity ([2]; 10 nM) | Percentage cytotoxicity ([2]; 100 nM) | Percentage cytotoxicity ([2]; 1 μM) | Percentage cytotoxicity ([3]; 1 nM) | Percentage cytotoxicity ([3]; 10 nM) | Percentage cytotoxicity ([3]; 100 nM) | Percentage cytotoxicity ([3]; 1 μM) | Percentage cytotoxicity ([5]; 1 nM) | Percentage cytotoxicity ([5]; 10 nM) | Percentage cytotoxicity ([5]; 100 nM) | Percentage cytotoxicity ([5]; 1 μM) | Percentage cytotoxicity ([6]; 1 nM) | Percentage cytotoxicity ([6]; 10 nM) | Percentage cytotoxicity ([6]; 100 nM) | Percentage cytotoxicity ([6]; 1 μM) | other results
1 | CCCCCCCCCCCCCC(=O)N[C@@H](CC(C)C)C(=O)N[C@@H](CCSC)C(=O)N[C@@H](Cc1ccc(O)cc1)C(=O)N1CCC[C@H]1C(=O)N[C@H](C(=O)N[C@@H](Cc1ccc(O)cc1)C(=O)N[C@@H](CC(C)C)C(=O)N[C@@H](CCCCN)C(=O)O)[C@@H](C)O [DT-M1, Myristoyl-Leu-Met-Tyr-Pro-Thr-Tyr-Leu-Lys-OH] (Myristoyl-LMYPTYLK-OH) | 10.6 ± 1.9% | 26.7 ± 1.1% | 16.8 ± 2.1% | 9.6 ± 2.4% | 15.8 ± 2.2% | 18.7 ± 2.2% | 22.9 ± 1.3% | 12.9 ± 1.2% | 21.0 ± 26% | 23.9 ± 3.1% | 19.0 ± 3.2% | 12.9 ± 1.6% | 29.4 ± 1.2% | 44.9 ± 2.7% | 32.2 ± 2.2% | 5.0 ± 2.5% | 27.5 ± 2.9% | 42.0 ± 2.2% | 25.9 ± 3.3% | 15.7 ± 1.2% | Percentage cytotoxicity ([4]; 1 nM): 26 ± 0.5%; Percentage cytotoxicity ([4]; 10 nM): 25 ± 3.6%; Percentage cytotoxicity ([4]; 100 nM): 31 ± 4.6%; Percentage cytotoxicity ([4]; 1 μM): 30 ± 3.9%; Percentage cytotoxicity ([7]; 1 nM): 21.9 ± 2.4%; Percentage cytotoxicity ([7]; 10 nM): 31.6 ± 3.8%; Percentage cytotoxicity ([7]; 100 nM): 30.4 ± 2.4%; Percentage cytotoxicity ([7]; 1 μM): 29.6 ± 2.3%; Percentage cytotoxicity ([8]; 1 nM): 21.9 ± 1.6%; Percentage cytotoxicity ([8]; 10 nM): 16.9 ± 3.1%; Percentage cytotoxicity ([8]; 100 nM): 22.9 ± 1.0%; Percentage cytotoxicity ([8]; 1 μM): 17.7 ± 1.2%
2 | Ac-LMYPTYLK-OH [DT-A1, Acetyl-Leu-Met-Tyr-Pro-Thr-Tyr-Leu-Lys-OH] | 13.9 ± 2.9% | 26.4 ± 3.2% | 14.6 ± 3.1% | 12.9 ± 2.4% | 14.9 ± 2.2% | 39.9 ± 1.8% | 21.9 ± 2.7% | 19.7 ± 1.1% | 25.9 ± 1.6% | 31.0 ± 2.1% | 26.9 ± 2.1% | 21.0 ± 2.3% | 10.4 ± 1.3% | 29.9 ± 2.2% | 26.9 ± 1.5% | 21.9 ± 1.4% | 21.9 ± 1.5% | 24.9 ± 2.6% | 18.5 ± 2.3% | 6.9 ± 3.2% | Percentage cytotoxicity ([7]; 1 nM): 19.9 ± 3.5%; Percentage cytotoxicity ([7]; 10 nM): 31.9 ± 3.5%; Percentage cytotoxicity ([7]; 100 nM): 30.5 ± 1.3%; Percentage cytotoxicity ([7]; 1 μM): 28.9 ± 1.2%; Percentage cytotoxicity ([8]; 1 nM): 8.0 ± 2.5%; Percentage cytotoxicity ([8]; 10 nM): 16.5 ± 3.4%; Percentage cytotoxicity ([8]; 100 nM): 22.0 ± 2.3%; Percentage cytotoxicity ([8]; 1 μM): 10.8 ± 3.4%
3 | Palmitoyl-Leu-Met-Tyr-Pro-Thr-Tyr-Leu-Lys-OH (Palmitoyl-LMYPTYLK-OH) [DT-P1] | 10.9 ± 1.9% | 29.0 ± 1.2% | 19.6 ± 1.1% | 17.8 ± 2.2% | 13.9 ± 1.2% | 24.9 ± 2.8% | 28.9 ± 1.7% | 14.9 ± 1.3% | 21.9 ± 2.6% | 32.0 ± 2.1% | 23.0 ± 2.2% | 18.0 ± 2.6% | 9.6 ± 1.8% | 34.0 ± 2.6% | 32.9 ± 2.5% | 18.4 ± 2.4% | 20.5 ± 1.9% | 21.9 ± 2.2% | 25.6 ± 3.3% | 21.7 ± 2.2% | Percentage cytotoxicity ([4]; 1 nM): 27 ± 3.1%; Percentage cytotoxicity ([4]; 10 nM): 21 ± 1.2%; Percentage cytotoxicity ([4]; 100 nM): 33 ± 1.1%; Percentage cytotoxicity ([4]; 1 μM): 31 ± 3.1%; Percentage cytotoxicity ([7]; 1 nM): 25.7 ± 2.5%; Percentage cytotoxicity ([7]; 10 nM): 34.9 ± 3.6%; Percentage cytotoxicity ([7]; 100 nM): 33.3 ± 1.4%; Percentage cytotoxicity ([7]; 1 μM): 28.9 ± 1.3%; Percentage cytotoxicity ([8]; 1 nM): 18.8 ± 2.6%; Percentage cytotoxicity ([8]; 10 nM): 19.9 ± 3.4%; Percentage cytotoxicity ([8]; 100 nM): 31.9 ± 1.3%; Percentage cytotoxicity ([8]; 1 μM): 25.9 ± 1.4%
4 | n-Octanoyl-Leu-Met-Tyr-Pro-Thr-Tyr-Leu-Lys-OH (Octanoyl-LMYPTYLK-OH) [DT-O1] | 19.4 ± 2.9% | 25.9 ± 1.7% | 14.9 ± 2.5% | 7.9 ± 2.3% | 8.6 ± 2.5% | 22.9 ± 1.2% | 17.9 ± 2.3% | 18.8 ± 4.2% | 21.0 ± 0.6% | 34.9 ± 3.1% | 26.9 ± 2.2% | 23.9 ± 1.3% | 37.0 ± 1.6% | 38.7 ± 1.7% | 28.6 ± 1.2% | 21.9 ± 1.5% | 26.0 ± 3.9% | 37.8 ± 2.2% | 22.6 ± 3.6% | 6.0 ± 1.4% | Percentage cytotoxicity ([4]; 1 nM): 28 ± 5.4%; Percentage cytotoxicity ([4]; 10 nM): 32 ± 0.3%; Percentage cytotoxicity ([4]; 100 nM): 33 ± 3.2%; Percentage cytotoxicity ([4]; 1 μM): 29 ± 5.5%; Percentage cytotoxicity ([7]; 1 nM): 30.0 ± 1.4%; Percentage cytotoxicity ([7]; 10 nM): 33.7 ± 2.8%; Percentage cytotoxicity ([7]; 100 nM): 32.8 ± 2.8%; Percentage cytotoxicity ([8]; 1 nM): 16.9 ± 1.3%; Percentage cytotoxicity ([8]; 10 nM): 27.9 ± 3.2%; Percentage cytotoxicity ([8]; 100 nM): 24.9 ± 2.4%; Percentage cytotoxicity ([8]; 1 μM): 23.9 ± 2.2%
